Six molecules from patent US20020062008A1 (ICOS, published 2002) can be followed below.

First the molecules themselves.
B1: soluble VCAM-1/IgG1 fusion protein (seven extracellular immunoglobulin-like domains) (Fc fusion, UniProt P19320 25-698, looked up)
chain: FKIETTPESRYLAQIGDSVSLTCSTTGCESPFFSWRTQIDSPLNGKVTNEGTTSTLTMNPVSFGNEHSYLCTATCESRKLEKGIQVEIYSFPKDPEIHLSGPLEAGKPITVKCSVADVYPFDRLEIDLLKGDHLMKSQEFLEDADRKSLETKSLEVTFTPVIEDIGKVLVCRAKLHIDEMDSVPTVRQAVKELQVYISPKNTVISVNPSTKLQEGGSVTMTCSSEGLPAPEIFWSKKLDNGNLQHLSGNATLTLIAMRMEDSGIYVCEGVNLIGKNRKEVELIVQEKPFTVEISPGPRIAAQIGDSVMLTCSVMGCESPSFSWRTQIDSPLSGKVRSEGTNSTLTLSPVSFENEHSYLCTVTCGHKKLEKGIQVELYSFPRDPEIEMSGGLVNGSSVTVSCKVPSVYPLDRLEIELLKGETILENIEFLEDTDMKSLENKSLEMTFIPTIEDTGKALVCQAKLHIDDMEFEPKQRQSTQTLYVNVAPRDTTVLVSPSSILEEGSSVNMTCLSQGFPAPKILWSRQLPNGELQPLSENATLTLISTKMEDSGVYLCEGINQAGRSRKEVELIIQVTPKDIKLTAFPSESVKEGDTVIISCTCGNVPETWIILKKKAETGDTVLKSIDGAYTIRKAQLKDAGVYECESKNKVGSQLRSLTLDVQGRENNKDYFSPE
notes: domain: seven extracellular immunoglobulin-like domains; not shown: IgG1 portion
B2: human αd I domain/IgG4 fusion protein (Fc fusion)
chain: IVFLIDGSGSIDQNDFNQMKGFVQAVMGQFEGTDTLFALMQYSNLLKIHFTFTQFRTSPSQQSLVDPIVQLKGLTFTATGILTVVTQLFHHKNGARKSAKKILIVITDGQKYKDPLEYSDVIPQAEKAGIIRYAIGVGHAFQGPTARQELNTISSAPPQDHVFKVDNFAALGSIQKQLQEKIYAVEGTQSRASSSFQHEMSQE
notes: Residue limits approximate; also called Iαd/IgG4; I domain chimera; not shown: human IgG4 portion
B3: CD11a I domain/IgG chimeric protein (Fc fusion, UniProt P20701 153-332, looked up)
chain: GNVDLVFLFDGSMSLQPDEFQKILDFMKDVMKKLSNTSYQFAAVQFSTSYKTEFDFSDYVKRKDPDALLKHVKHMLLLTNTFGAINYVATEVFREELGARPDATKVLIIITDGEATDSGNIDAAKDIIRYIIGIGKHFQTKESQETLHKFASKPASEFVKILDTFEKLKDLFTELQKKIY
notes: domain: I domain; Negative control; also called CD11a/IgG4 protein; not shown: IgG4 portion
B4: VCAM-1 domains 1 and 2 fused to human immunoglobulin Fc (Fc fusion, UniProt P19320 25-220, looked up, not shown: a dimerising Fc or GST)
chain: FKIETTPESRYLAQIGDSVSLTCSTTGCESPFFSWRTQIDSPLNGKVTNEGTTSTLTMNPVSFGNEHSYLCTATCESRKLEKGIQVEIYSFPKDPEIHLSGPLEAGKPITVKCSVADVYPFDRLEIDLLKGDHLMKSQEFLEDADRKSLETKSLEVTFTPVIEDIGKVLVCRAKLHIDEMDSVPTVRQAVKELQVY
notes: domain: domains 1 and 2; also called two domain form of VCAM-1
B5: soluble ICAM-1/IgG1 fusion protein (Fc fusion, UniProt P05362 28-480, looked up)
chain: QTSVSPSKVILPRGGSVLVTCSTSCDQPKLLGIETPLPKKELLLPGNNRKVYELSNVQEDSQPMCYSNCPDGQSTAKTFLTVYWTPERVELAPLPSWQPVGKNLTLRCQVEGGAPRANLTVVLLRGEKELKREPAVGEPAEVTTTVLVRRDHHGANFSCRTELDLRPQGLELFENTSAPYQLQTFVLPATPPQLVSPRVLEVDTQGTVVCSLDGLFPVSEAQVHLALGDQRLNPTVTYGNDSFSAKASVSVTAEDEGTQRLTCAVILGNQSQETLQTVTIYSFPAPNVILTKPEVSEGTEVTVKCEAHPRAKVTLNGVPAQPLGPRAQLLLKATPEDNGRSFSCSATLEVAGQLIHKNQTRELRVLYGPRLDERDCPGNWTWPENSQQTPMCQAWGNPLPELKCLKDGTFPLPIGESVTVTRDLEGTYLCRARSTQGEVTRKVTVNVLSPRYE
notes: not shown: IgG1 portion (detected with anti-human IgG1)
B6: E-selectin, immobilized recombinant (ligand, UniProt P16581 22-556, looked up)
chain: WSYNTSTEAMTYDEASAYCQQRYTHLVAIQNKEEIEYLNSILSYSPSYYWIGIRKVNNVWVWVGTQKPLTEEAKNWAPGEPNNRQKDEDCVEIYIKREKDVGMWNDERCSKKKLALCYTAACTNTSCSGHGECVETINNYTCKCDPGFSGLKCEQIVNCTALESPEHGSLVCSHPLGNFSYNSSCSISCDRGYLPSSMETMQCMSSGEWSAPIPACNVVECDAVTNPANGFVECFQNPGSFPWNTTCTFDCEEGFELMGAQSLQCTSSGNWDNEKPTCKAVTCRAVRQPQNGSVRCSHSPAGEFTFKSSCNFTCEEGFMLQGPAQVECTTQGQWTQQIPVCEAFQCTALSNPERGYMNCLPSASGSFRYGSSCEFSCEQGFVLKGSKRLQCGPTGEWDNEKPTCEAVRCDAVHQPPKGLVRCAHSPIGEFTYKSSCAFSCEEGFELHGSTQLECTSQGQWTEEVPSCQVVKCSSLAVPGKINMSCSGEPVFGTVCKFACPEGWTLNGSAARTCGATGHWSGLLPTCEAPTESNIP
notes: also called E-selection

For assay [1], the target named is T1, LFA-1 leucine zipper fusion protein (soluble CD11a/CD18) (UniProt P20701 26-1090; P05107 23-700).
T1 construct: also called LFA-1LZ; captured CD11a/CD18
Description: ELISA on LFA-1LZ captured with TS2/4.1. The protocol:
(§1) The same protocol was used to immobilize the anti-CD11a antibody TS2/4.1 for immobilization of a LFA-1 leucine zipper (LFA-1LZ) fusion protein; LFA-1 was used as a negative control for VCAM-1 binding and a positive control for ICAM-1 binding. The plates were blocked with 300 μl/well 3% bovine serum albumin for one hour and washed in D-PBS. Tissue culture supernatants from stable CHO transfectants expressing either αd/CD18LZ or LFA-1LZ were added at 100 μl/well and allowed to incubate for 6 to 8 hours at 4° C. The plates were washed twice with Tris-buffered saline with Tween® 20 (TBS-T), followed by one wash with TBS (no Tween®) containing 2 mM each calcium chloride, magnesium chloride, and manganese chloride. The latter served as assay and wash buffer during the remainder of the assay.
(§2) After integrin capture, the plates were washed three times with 250 μl/well TBS. Purified CAM/Ig (see Example 12) was added to each well following serial 2:3 dilutions starting at a concentration of 10 to 20 μg/ml. CAM/Igs were allowed to bind for two hours at room temperature before plates were washed as above. Bound fusion protein was detected with horseradish peroxidase-conjugated goat anti-human Ig antibody (Jackson Labs) followed by development with o-phenyldiamine (OPD).
For orientation: In an ELISA, binding on a coated surface is turned into a signal by an enzyme label.

The target of another assay is T2, bovine serum albumin (bovine, UniProt P02769 25-607).
T2 construct: also called BSA
Description: ELISA, bound IgG4 detected with HP6023.

The target of assay [2] is B5. In words: ELISA, bound IgG4 detected with HP6023.
Assay [3] deals with B1. Description: ELISA, bound IgG4 detected with HP6023.
Assay [4] concerns the target T3, soluble ICAM-R/IgG1 fusion protein (UniProt P32942 30-485, limits assumed).
T3 construct: not shown: IgG1 portion
T3 sequence (looked up): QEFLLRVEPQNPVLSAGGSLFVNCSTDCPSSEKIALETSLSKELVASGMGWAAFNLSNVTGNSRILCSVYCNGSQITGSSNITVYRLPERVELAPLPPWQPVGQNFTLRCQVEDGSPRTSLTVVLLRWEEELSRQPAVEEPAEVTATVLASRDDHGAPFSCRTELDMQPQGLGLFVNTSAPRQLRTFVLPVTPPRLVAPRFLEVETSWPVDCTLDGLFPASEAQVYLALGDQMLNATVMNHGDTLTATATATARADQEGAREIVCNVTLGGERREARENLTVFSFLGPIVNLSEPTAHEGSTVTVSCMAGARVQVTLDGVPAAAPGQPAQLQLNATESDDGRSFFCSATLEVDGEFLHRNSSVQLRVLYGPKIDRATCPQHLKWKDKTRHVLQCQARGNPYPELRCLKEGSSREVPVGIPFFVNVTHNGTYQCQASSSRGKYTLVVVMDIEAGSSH
Description: ELISA, bound IgG4 detected with HP6023.

The target in assay [5] is T4, human αd/CD18 heterodimer expressed on transfected cells (COS, CHO, JY) (human, UniProt P05107 23-769).
T4 construct: whole, on cells; also used as detergent lysate in immunoprecipitations; also called αd/CD18 CHO transfected cells; αd/CD18 co-transfectants
In words: adhesion of CHO transfectants to immobilized CAM, crystal violet A570. The protocol: (§3) The ability of CHO cells expressing either α₄β₁ or αdβ₂ to bind a five domain VCAM-1/Ig fusion protein or ICAM-1/Ig fusion protein was tested as follows. CAMs were immobilized on 96 well microtiter plates at 0.5 μg/well in bicarbonate buffer (pH 9.5). Plates were blocked with 1% fish gelatin and treated with either buffer, irrelevant antibody or a blocking VCAM-1 antibody. […] Cells were washed before addition to the CAM-coated wells at a density of 100,000 cells per well. Cells were incubated in the presence of the immobilized […] for twenty minutes before addition of 5% glutaraldehyde. Following fixation, plates were washed with distilled water and cells were stained with 1% crystal violet, After destaining with 66% ethanol for several hours, absorbance at 570 nm was measured on a Dynatech plate reader.

Assay [6] deals with T1, LFA-1 leucine zipper fusion protein …. In words: ELISA, CAM/Ig on captured soluble CD11a/CD18. The protocol: as §1, §2
Assay [7] deals with T4, human αd/CD18 heterodimer expressed on …. In words: adhesion of CHO transfectants to immobilized CAM, crystal violet. The protocol:
as §3

In assay [8] the target is T5, α4β1 expressed on CHO cells (UniProt P13612 34-1032; P05556 21-798, limits assumed).
T5 construct: whole, on cells; also called α4 transformed CHO cells; α4 transfected line
Described as above. The protocol: as §3

Assay [9] addresses T4, human αd/CD18 heterodimer expressed on …. In words: adhesion of αdβ2-transfected CHO cells to coated wells. The protocol:
For transfected and parental CHO cells, adhesion was performed using coated plates identical to those employed for eosinophil adhesion. […] A modification of a previously described gentle washing technique [Shanley, et al., J. Immunol. 160:1014 (1998)] was therefore employed. This technique allowed non-adherent cells to be dislodged from the inverted plate with centrifugation at 1×g for 30 minutes at 20° C. Remaining adherent cells were then removed using 0.1 M EDTA (Sigma) and counted by flow cytometry. In addition to VCAM-1, E-selection (100 ng/ml) was also used to coat wells in some adhesion experiments. In addition to the blocking monoclonal antibodies used in the eosinophil studies, immobilized VCAM-1 was pretreated with an appropriate dilution of F(ab′)₂ anti-VCAM-1 monoclonal antibody prior to the addition of CHO cells.
Chinese hamster ovary cells were transfected as described in Example 11. The αdβ₂-transfected CHO cells were cultured in DMEM/F12 media with 1 mM pyruvate and 2 mM L-glutamine (Biofluids) supplemented with 10% dialyzed FBS, 100 U/ml penicillin, 100 μg/ml streptomycin, and 600 μg/ml G418 (all from Life Technologies). Media for culture of the parental CHO cell line was similar except that non-dialyzed FBS (Life Technologies) was used and 0.1 mM hypoxanthine and 16 nM thymidine (Sigma) were used in place of the G418. […]

T2 sequence (P02769 25-607 limits assumed): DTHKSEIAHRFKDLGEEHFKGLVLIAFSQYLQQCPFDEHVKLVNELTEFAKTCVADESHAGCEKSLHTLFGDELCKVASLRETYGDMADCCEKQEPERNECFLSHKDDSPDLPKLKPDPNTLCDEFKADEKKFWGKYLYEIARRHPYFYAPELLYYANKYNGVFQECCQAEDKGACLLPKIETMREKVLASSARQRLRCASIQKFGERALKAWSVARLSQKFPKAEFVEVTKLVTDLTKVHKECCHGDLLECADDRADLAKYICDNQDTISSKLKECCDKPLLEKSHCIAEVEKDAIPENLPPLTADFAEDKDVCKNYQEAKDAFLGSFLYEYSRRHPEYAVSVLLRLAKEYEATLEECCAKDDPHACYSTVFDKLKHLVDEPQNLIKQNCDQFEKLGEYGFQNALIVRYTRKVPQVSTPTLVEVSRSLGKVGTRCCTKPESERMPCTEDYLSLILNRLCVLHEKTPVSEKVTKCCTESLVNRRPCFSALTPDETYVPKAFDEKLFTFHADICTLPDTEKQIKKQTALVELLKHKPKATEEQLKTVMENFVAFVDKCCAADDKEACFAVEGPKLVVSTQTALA

For B1, the binding result in assay [1] is “no binding”.
On to B2, for which the binding result (with bovine serum albumin; in assay [2]) was “no binding” throughout.
Consider B3, for which the binding result in assay [3] and in assay [4] was “no binding” throughout.
Take B4: in assay [5], the binding result is “binds”.
On to B5, for which the fold above background in assay [6] was about 15 fold. In addition, the binding result in assay [7] and in [8] was “no binding (tested: 0.5 µg/well coat)” throughout.
Regarding B6, the binding result in assay [9] is on record as “no binding (tested: 100 ng/ml coat)”.
